System: Bacillus subtilis
Assay: cleaved RNA product abundance (RNA/gDNA barcode ratio) relative to median wild-type variant (ratio to wild type); higher = more accumulation of the downstream cleavage product
Conditions: cleavage site: cggR-gapA (positions -7 to +36 mutated)
Procedure, shortened: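 B. subtilis strains with chromosomally integrated reporter mRNAs (truncated aprE or tetM) holding barcoded, mutagenized RNase Y cleavage-site windows grew in LB at 37°C from OD600 0.0003 to 0.3. Cleaved product abundance is each construct's RNA:gDNA barcode ratio, scaled to the median construct with the unmutated site. It came from sequencing barcodes of gel-selected, reverse-transcribed cleaved RNA and of genomic DNA.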

[1] = experiment (reporter, strain, medium): exp 4a: truncated aprE reporter, strain BJT201 with 2% xylose (RNase J1 expressed)
[2] = experiment (reporter, strain, medium): exp 2b: truncated aprE reporter, strain BJT200
[3] = experiment (reporter, strain, medium): exp 6: tetM reporter, strain 168

| Sequence | cleaved RNA product abundance [1] | cleaved RNA product abundance [2] | cleaved RNA product abundance [3] |
| --- | --- | --- | --- |
| ACAGACGAAGGAGCCGCAAAGAAGTTATTAAGGTATGAATAATCCCTCAATATAGATATCTCTCACTTATTTAAA | 0.08 | – | – |
| ACAGACGAAGGAGCCGCAAAGAAGTTATTAAGGTATGAATAATCCCTCAATATATATATCTCTCACTTATTTAAA | 0.0867 | 0.121 | – |
| ACAGACGAAGGAGCCGCAAAGAAGTTATTAAGGTATGAATAATCCCTCAATATTAATATCTCTCACTTATTTAAA | 0.0645 | – | – |
| ACAGACGAAGGAGCCGCAAAGAAGTTATTAAGGTATGAATAATCCCTCAATCTAAATATCTCTCACTTATTTAAA | 0.0855 | – | – |
| ACAGACGAAGGAGCCGCAAAGAAGTTATTAAGGTATGAATAATCCCTCAATGTAAATATCTCTCACTTATTTAAA | 0.0511 | 0.094 | – |
| ACAGACGAAGGAGCCGCAAAGAAGTTATTAAGGTATGAATAATCCCTCAATTTAAATATCTCTCACTTATTTAAA | 0.0555 | 0.0856 | – |
| ACAGACGAAGGAGCCGCAAAGAAGTTATTAAGGTATGAATAATCCCTCAGTATAAATATCTCTCACTTATTTAAA | 0.1 | – | – |
| ACAGACGAAGGAGCCGCAAAGAAGTTATTAAGGTATGAATAATCCCTCATTATAAATATCTCTCACTTATTTAAA | 0.107 | – | – |
| ACAGACGAAGGAGCCGCAAAGAAGTTATTAAGGTATGAATAATCCCTCCATATAAATATCTCTCACTTATTTAAA | 0.0967 | – | – |
| ACAGACGAAGGAGCCGCAAAGAAGTTATTAAGGTATGAATAATCCCTCGATATAAATATCTCTCACTTATTTAAA | 0.0744 | 0.0823 | – |
| ACAGACGAAGGAGCCGCAAAGAAGTTATTAAGGTATGAATAATCCCTCTATATAAATATCTCTCACTTATTTAAA | 0.11 | 0.0999 | – |
| ACAGACGAAGGAGCCGCAAAGAAGTTATTAAGGTATGAATAATCCCTGAATATAAATATCTCTCACTTATTTAAA | 0.0951 | 0.0773 | – |
| ACAGACGAAGGAGCCGCAAAGAAGTTATTAAGGTATGAATAATCCCTTAATATAAATATCTCTCACTTATTTAAA | 0.461 | 0.709 | 0.236 |
| ACAGACGAAGGAGCCGCAAAGAAGTTATTAAGGTATGAATAATCCGTCAATATAAATATCTCTCACTTATTTAAA | 0.0909 | 0.0647 | 0.0676 |
| ACAGACGAAGGAGCCGCAAAGAAGTTATTAAGGTATGAATAATCCTTCAATATAAATATCTCTCACTTATTTAAA | 0.126 | 0.145 | – |
| ACAGACGAAGGAGCCGCAAAGAAGTTATTAAGGTATGAATAATCGCTCAATATAAATATCTCTCACTTATTTAAA | 0.0909 | – | – |
| ACAGACGAAGGAGCCGCAAAGAAGTTATTAAGGTATGAATAATCTCTCAATATAAATATCTCTCACTTATTTAAA | 0.162 | – | – |
| ACAGACGAAGGAGCCGCAAAGAAGTTATTAAGGTATGAATAATTCCTCAATATAAATATCTCTCACTTATTTAAA | 0.156 | 0.0842 | – |
| ACAGACGAAGGAGCCGCAAAGAAGTTATTAAGGTATGAATACTCCCTCAATATAAATATCTCTCACTTATTTAAA | 0.135 | 0.0931 | – |
| ACAGACGAAGGAGCCGCAAAGAAGTTATTAAGGTATGAATATTCCCTCAATATAAATATCTCTCACTTATTTAAA | 0.0859 | – | – |
| ACAGACGAAGGAGCCGCAAAGAAGTTATTAAGGTATGAATCATCCCTCAATATAAATATCTCTCACTTATTTAAA | 0.176 | – | – |
| ACAGACGAAGGAGCCGCAAAGAAGTTATTAAGGTATGAATGATCCCTCAATATAAATATCTCTCACTTATTTAAA | 0.0732 | 0.0901 | – |
| ACAGACGAAGGAGCCGCAAAGAAGTTATTAAGGTATGAATTATCCCTCAATATAAATATCTCTCACTTATTTAAA | – | 0.15 | – |
| ACAGACGAAGGAGCCGCAAAGAAGTTATTAAGGTATGACTAATCCCTCAATATAAATATCTCTCACTTATTTAAA | 0.107 | – | – |
| ACAGACGAAGGAGCCGCAAAGAAGTTATTAAGGTATGAGTAATCCCTCAATATAAATATCTCTCACTTATTTAAA | 0.224 | – | – |
| ACAGACGAAGGAGCCGCAAAGAAGTTATTAAGGTATGATTAATCCCTCAATATAAATATCTCTCACTTATTTAAA | 0.153 | – | – |
| ACAGACGAAGGAGCCGCAAAGAAGTTATTAAGGTATGCATAATCCCTCAATATAAATATCTCTCACTTATTTAAA | 0.126 | – | – |
| ACAGACGAAGGAGCCGCAAAGAAGTTATTAAGGTATGTATAATCCCTCAATATAAATATCTCTCACTTATTTAAA | 0.127 | 0.108 | – |
| ACAGACGAAGGAGCCGCAAAGAAGTTATTAAGGTATTAATAATCCCTCAATATAAATATCTCTCACTTATTTAAA | 0.169 | 0.0984 | – |

Reference: the supplement of paper PMC11780869
